From IntAct's records for PubMed 11742986

B1: 26S proteasome regulatory subunit 8 homolog (Saccharomyces cerevisiae), Q01939 (parent)
chain: MTAAVTSSNIVLETHESGIKPYFEQKIQETELKIRSKTENVRRLEAQRNALNDKVRFIKDELRLLQEPGSYVGEVIKIVSDKKVLVKVQPEGKYIVDVAKDINVKDLKASQRVCLRSDSYMLHKVLENKADPLVSLMMVEKVPDSTYDMVGGLTKQIKEIKEVIELPVKHPELFESLGIAQPKGVILYGPPGTGKTLLARAVAHHTDCKFIRVSGAELVQKYIGEGSRMVRELFVMAREHAPSIIFMDEIDSIGSTRVEGSGGGDSEVQRTMLELLNQLDGFETSKNIKIIMATNRLDILDPALLRPGRIDRKIEFPPPSVAARAEILRIHSRKMNLTRGINLRKVAEKMNGCSGADVKGVCTEAGMYALRERRIHVTQEDFELAVGKVMNKNQETAISVAKLFK
partner: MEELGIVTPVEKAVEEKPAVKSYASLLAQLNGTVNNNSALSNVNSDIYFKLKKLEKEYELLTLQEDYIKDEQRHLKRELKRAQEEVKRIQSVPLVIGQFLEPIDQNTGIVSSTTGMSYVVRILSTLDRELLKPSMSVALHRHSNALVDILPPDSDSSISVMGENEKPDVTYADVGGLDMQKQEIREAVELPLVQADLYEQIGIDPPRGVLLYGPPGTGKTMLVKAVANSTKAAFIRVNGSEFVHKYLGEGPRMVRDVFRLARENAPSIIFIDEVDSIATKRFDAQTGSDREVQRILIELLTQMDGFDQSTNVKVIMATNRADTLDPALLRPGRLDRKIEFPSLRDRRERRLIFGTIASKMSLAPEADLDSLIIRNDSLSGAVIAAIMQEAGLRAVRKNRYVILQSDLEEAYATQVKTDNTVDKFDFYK

Variants of: B1
Conditions: with prs6b_yeast RPT3, P33298

effect of a mutation on the interaction	Variant
decreasing interaction	MTAAVTSSNIVLETHESGIKPYFEQKIQETELKIRSKTENVRRLEAQRNALNDKVRFIKDELRLLQEPGSYVGEVIKIVSDKKVLVKVQPEGKYIVDVAKDINVKDLKASQRVCLRSDSYMLHKVLENKADPLVSLMMVEKVPDSTYDMVGGLTKQIKEIKEVIELPVKHPELFESLGIAQPKGVILYGPPGTGRTLLARAVAHHTDCKFIRVSGAELVQKYIGEGSRMVRELFVMAREHAPSIIFMDEIDSIGSTRVEGSGGGDSEVQRTMLELLNQLDGFETSKNIKIIMATNRLDILDPALLRPGRIDRKIEFPPPSVAARAEILRIHSRKMNLTRGINLRKVAEKMNGCSGADVKGVCTEAGMYALRERRIHVTQEDFELAVGKVMNKNQETAISVAKLFK [K195R]
decreasing interaction	MTAAVTSSNIVLETHESGIKPYFEQKIQETELKIRSKTENVRRLEAQRNALNDKVRFIKDELRLLQEPGSYVGEVIKIVSDKKVLVKVQPEGKYIVDVAKDINVKDLKASQRVCLRSDSYMLHKVLENKADPLVSLMMVEKVPDSTYDMVGGLTKQIKEIKEVIELPVKHPELFESLGIAQPKGVILYGPPGTGSTLLARAVAHHTDCKFIRVSGAELVQKYIGEGSRMVRELFVMAREHAPSIIFMDEIDSIGSTRVEGSGGGDSEVQRTMLELLNQLDGFETSKNIKIIMATNRLDILDPALLRPGRIDRKIEFPPPSVAARAEILRIHSRKMNLTRGINLRKVAEKMNGCSGADVKGVCTEAGMYALRERRIHVTQEDFELAVGKVMNKNQETAISVAKLFK [K195S]
